From the DeepSol protein solubility set

Experiment: soluble on expression in E. coli; label from the status in PepcDB or PDB records

| Sequence | soluble on expression in E. coli |
| --- | --- |
| MPQNEHIELHRKRHGRRLDHEERQRKKLARAAHDRSQMAKTLRGHKAKLYHKKRYSEKVEMRKLLKQHEEKDQKNTVEQPDKGAVPAYLLDRQQQTSGTVLSNMIKQKRKQKAGKFNVPIPQVRAVSDAEAFKVVKTGKTNRKGWKRMVTKVTFVGESFTRKPAKFERFIRPMGLRFKKAHVTHPELQTTFHLPIVGVKKNPSSQMYTSLGVITKGTILEVNVSELGMVTQGGKVVWGKFAQVTNNPENDGCINAVLLI | not soluble |
| MPREYDNLICYKQLSIDDHGKLKFFLEKHSTKEGTWGKLSLSEGEIDFIFQNGLGQELSRIRLDKNNRQLSIPPASWHKIIPISASFNAQLGFYCKPHRYFNKKYGLTEVHRDLLYVYHTYLSHLGSLTTLDVGCGSGRNLLYLTQLGHIVTGIDINQTALENIQIIAQKENLSLLNILSQDLNQPQALAPDHYDFVCSTVTLQFLNASRIPSLLIELQEATKKNGYHFLVFPVQSELYSLPSSFTFLPKQEELYHFYQDSGWSILEYKESVGHLHKQDEMGRPVQGLFALLLAQKVLLEHHHHHH | not soluble |
| MPRIRCERCARPASHCLCALIPSLPSRTRVLVLQHPSEVGHALNTAGLAVLGLCNAELRVGERFAEETWRVPGYRACLLFPGEQARALAEMAAEAAGEPLLLVVPDGTWRKARKLLHLNPALAALPRVSLAEGMASRYRLRKAPGEGALSTIEAIAAALDELEAPRTHEALLKPFDALIEGQIAAMGEDTYRRNHLSQERRRRLEHHHHHH | soluble |
| MPRLTDDDKKLLLMLAREAIVTYVREGITPATELSVPSLCEHYGCFVCIKKGGELRGCIGNFTSSQPLYQLVREMAVSAATRDPRFYPMTSKDITDFSLEISVLSPLEKISSPEQITVGTHGIYIEKNFFRGVLLPQVATEYGWDRDTFLMQTCVKAGLKPDDWRDGADIYIFSAEVFSLEHHHHHH | not soluble |
| MPRSLANAPIMILNGPNLNLLGQRQPEIYGSDTLADVEALCVKAAAAHGGTVDFRQSNHEGELVDWIHEARLNHCGIVINPAAYSHTSVAILDALNTCDGLPVVEVHISNIHQREPFRHHSYVSQRADGVVAGCGVQGYVFGVERIAALAGAGSARA | soluble |
| MPSGGQRKHTISNKTRKRPGKDLDQIHEDLKPEKAAKLLQQEIDYDLPGNGQFYCIECERHFVDEKTRQLHRKTKLHKNRVKTLKEVPYTQAEANAAGGSGFFPAITLKTRVELPKQPEIPIPVVAET | soluble |
| MPSVKIGIIGAGSAVFSLRLVSDLCKTPGLSGSTVTLMDIDEERLDAILTIAKKYVEEVGADLKFEKTMNLDDVIIDADFVINTAMVGGHTYLEKVRQIGEKYGYYRGIDAQEFNMVSDYYTFSNYNQLKYFVDIARKIEKLSPKAWYLQAANPIFEGTTLVTRTVPIKAVGFCHGHYGVMEIVEKLGLEEEKVDWQVAGVNHGIWLNRFRYNGGNAYPLLDKWIEEKSKDWKPENPFNDQLSPAAIDMYRFYGVMPIGDTVRNSSWRYHRDLETKKKWYGEPWGGADSEIGWKWYQDTLGKVTEITKKVAKFIKENPSVRLSDLGSVLGKDLSEKQFVLEVEKILDPERKSGEQHIPFIDALLNDNKARFVVNIPNKGIIHGIDDDVVVEVPALVDKNGIHPEKIEPPLPDRVVKYYLRPRIMRMEMALEAFLTGDIRIIKELLYRDPRTKSDEQVEKVIEEILALPENEEMRKHYLKR | soluble |
| MPTLPRAANSRWRSLKIGLAPDLGLDDNGSLLLDFGPRQFTVSFDETLKPFVRDVSGSRLKDLPKPNKSDDETRANDAVNRYKLLKKDARTIAAQQVARLESAMCLRRRWSLENFQLFLVEHPLVRHLTRRLIWGVYSAENQLLACFRVAEDNSSSTADDDLFTLPEGDISIGTPHVLEISPTDAAAFGQLFADYELLPPFRQLDRNSYALTEAERNASELTRWAGRKCPSGRVMGLANKGWIKGEPQDGGWIGWMIKPLGRWSLIMEIDEGFAVGMSPAELSAEQLLSKLWLWEGKAERYGWGSNSTQEAQFSVIDAITASELINDIEALFE | not soluble |
| MPTNCAAAGCATTYNKHINISFHRFPLDPKRRKEWVRLVRRKNFVPGKHTFLCSKHFEASCFDLTGQTRRLKMDAVPTIFDFCTHI | soluble |
| MPTTPRSQPGTVGKDMAGALAGRHNDMPPISSNYQGRPGNANPNYRYQPSADNARNVADWTKSHMKTARENAAAKR | not soluble |
| MPVANDAPGVDIEGTDADAESGDLPINELFQSLQGEGRLAGVPSVFVRTSGCNLRCWFCDSYHTSWEPTHDWFTVDDVLAAIEEYDANHVVLTGGEPLIHDSSEDLLARLTDRGYHTTVETNGTVVPDAPIDLASVSPKLASSTPTADRDPDGNGEWADRHEERRLDVPTLAELVETYDTQLKFVVTGREDMAEIERLLKRLRDAASTCVRDDDVLLMPEGQTRDQLEATRETVADLALEHGYRYTPRLHVDLWNDAPGT | not soluble |
| MPVERVIDRPTPEEHLLERILATENMDLAWKRVRANKGAPGVDGVTIDAFPERFRPLWGDIRASLATGTYQPQPVLRVEIPKPTGGTRPLGIPTVLDRLIQQATAQVLTPIFDPEFSASSFGFRPGRSAHNAVRQLREYLRQGYRIAVDIDLAKFFDTVNHDLLMTMVGRRVRDKRVLTLIGRYLRAGVEVDGRLEKTRMGVPQGGPLSPLLANILLDHLDKELESRGHKFVRYADDFVILVKSERAGERVMGSVRKYLTNKLKLTVNEDKSKVARSGDLSFLGFVFKGTKILWSDQAYKEFRRRVRKYTGRSWFVSMEYRLNKLSTYLRGWMGYFGIAEAYRDIPEIDGWIRRRVRLCYWKQWRWCRTKIRNLLKLGVQLGTSIRAGLNRNGPWAMSRRLAAQHGMTNQWLKDQGLVSVKELWVKIHYPATARLEHHHHHH | not soluble |
| MPVFSINVNVKVPAEKQNEILKELSTVLGKLLNKPEQYMCIHFHEDQGILYAGTTEPAGFAVLKSIGGVGSAKQNNAISAVVFPIIEKHLGIPGNRLYIEFVNLGAADIAYNGQTFA | not soluble |
| MPYIILEDQTRLYYETHGSGTPILFIHGVLMSGQFFHKQFSVLSANYQCIRLDLRGHGESDKVLHGHTISQYARDIREFLNAMELDHVVLAGWSMGAFVVWDYLNQFGNDNIQAAVIIDQSASDYQWEGWEHGPFDFDGLKTAMHAIQTDPLPFYESFIQNMFAEPPAETETEWMLAEILKQPAAISSTILFNQTAADYRGTLQNINVPALLCFGEDKKFFSTAAGEHLRSNIPNATLVTFPKSSHCPFLEEPDAFNSTLLSFLDGVIGKS | not soluble |
| MPYKAKSDLPDNVRNVLPAHAQDIYKEAFNSAWEQYKDKADRRDDASREETAHKVAWAAVKNDYEKGEDDKWHKKK | not soluble |
| MQAKLFMIPWLIELVISQRAPSPPNPTPSAQVLTNDLLVDAHRRHFLDMLRRQQQINDALLLNNALLHPHPLPPLHIPANPAIQELNLPPAPPLFNPFIPAQVANQGPTSKLGTYGKDDEPEKKSEELKETPEEKEGTVGAPVRTDLVKKTLAGVKTVSIQKKGDVTGETLTTMEVVAPTTSTISPEDLEVVQLFKKLNLSKEETKSIVERVEQVVREKLMSKMDTSSTTTEVTTVVTTPSTTTTTTSTTQAPTTTTKEFIEEEIEEEDYSVATTAPPPQMHIRSEENLILQRNNLKHHPIKLQEKKLPESLESEEISQGSIKTSLTHLPIFVANEEEDVASLNPKSALHKRILIASQDREKESDRDLLVDFATGAPLDLSEPDVTKSKYEASPVATSPATLAPAQVTTRPVAPPRLNYHERTDFERLASDYRRRLENTGDINKILQKISENAYISLVERGGRRRLFGS | not soluble |
| MQARYRDWGIFKYWFRAVEKNAPWVHKIFIITDHQNPKFLNKHSSKIVFVNHEDFIPNEYLPTFNSDAIEIGIQNIPGLSEHFVFFNDDMFINKPVKPIDFFDGNIPKDSGVMGPQFPISNSITHITVNNMEIINKYFLKKKVLRKYFFKFFNWRYGKDNIRTATALPWQVFIGFYDMHIPISFLKSTFDNVWSEVGNLLSQNYQHRFRSQLDYSVWLMRYFQLASGNFFPRRTRFGKYYNLGEQTEEIINDIKTGKHALIVLNDQESINDYPYEKKLVNEVFERRYSRLEHHHHHH | soluble |
| MQASASNSSSYTVNASVLHVRAGSSTSHDIISRVYNGQSLNVIGEENGWYKININGKTGFVSGEFVSKNGTSNSNVSTTGGKNKVTADVLRVRTAPNTSSSVSGRVYEGQTLNVIGQENGWVKINHNGQVGYVSGEFVSGVSSNAGSSNSNTNNNNQESVKPASGNYTVNVSSLRVRTGPSTSHTTVGSVTKGQVVQVVGEVQDWFKINYAGQTAYVSKDYVTKGGSSDNVTQGNNQNNNQNNNVTVQTGGTYVVNATSLRVRTGPATYHSVIGGVLNGTTLNVIGSEGSWFKVNYQGKTGYVSSEFMKFVKGGTTTPEQPKQPEQPNQGAIGDYYINASALNVRSGEGTNYRIIGALPQGQKVQVISENSGWSKINYNGQTGYIGTRYLSKTPVGGAVDNNKPNNNQNNNQNNNNNTGNNSGNSSSILAYAKGMQGVPYVWGGTSANGVDCSGYIYHVFKKFGHNISRQSVAGYWGSLPQTSNPQPGDLIYFQNTYKSGPSHMGIYLGGGSFIQAGDKGVAIASLSNSYWKSHFLGYTKAPLEHHHHHH | soluble |
| MQAVNTTSGGAVGVERQQYMFSMLSTDEVNQMYAQSYQQTLGEASSKGVLDKSSADAKRVQAIANRLIAQAPKFRPDAAQWDWQVNVIKSDELNANCGPGGKIIVYTGLIDQLKLTDAEIAAVVGHEIAHALREHSREAMSKAYGVEMARQGAGAIFGLGQSSMAMADTVVNYAMTLPNSRANENEADLIGLELSARAGYDPNAAITLWNKMSKASEGAPPEFMSTHPASASRIASLQAAIPKVMPLYQAAAKPLEHHHHHH | soluble |
| MQAYTQTLIHRLDKLNRQRIERALALMDLQSQRVFHLIPALFQFNHPLIPGYFSADTPFGIHLFEANPIQQQFIDDAQLTLGEPLTPADNPAILGLYTMGSTSSIGQSTSSDLDIWVCVSAQMSCEARDNLSSKCLLITDWAKSQGVEANFFIMNEERFRHNHSEALSGENCGSSQHLLLLDEFYRSAVRLAGKRLLWQIVPPEMEECYDEYVHELCSNGYLNCNEWIDFGKLNRIPAEEYFGANLWQLYKSIDSPYKSVLKAILLEAYSWEYPHTQLLSIDSKRRFFADEPDLYGMDSYYQMLEKVTRYLVRIGDSTRLDLVRRCFYLKTHEKLSREPGVGSMPWRREALRELTSEWQWSADLIAELDNRRHWKVEQVKVVHHALLDALMLSYRNLIQFARRNDITSAISPQDISILARKLYAAFEVLPGKVTLLNPQISPDLHEPDLSFIEVCAGRTNKPGWYLYKQPLQAQRLIGQPYLEHNEYLSKLVAWAFFNGLITESTRLHAVVREAQLDIDKFYQMVSDLRNTFSLRKRRPTMQALANPCEISQLAMFINFEHDPTSELSGKALKVDLKNIDIFSFGAEQKCLVGSVDLVYRNSWQEVRTLHFEGQTAMLDALKTVLGKMHQDALPPESVDVFCYSKNLRGVMRNLVYQLLAECIDLRLKPMEQEKRRRFKALRMGDQMYGLFFERRGVSVQKLENSVDFYRSISTNKLKGSPLLMLDRDQDYPLPAVVDSFASEGLVQFFFEDTEKGFNIYVLDEANRVEVYHQFNGEKDEMIASVNSFYTSMLDDSNKLGAKSINFNLPQYYQIIHPEEGETYVVPYRNDSAVYSKPSQVVNA | not soluble |
| MQCNDVQATEPDIKVSLTRVGVTNLKKLVKLKRKNKRDIVLLPTFEVFVDLPSSQKGIHMSRSPEVIEEVVENILLEKEIYGVEDLSVEIVMKLFEKHEYATRAEVMLYSDYMMEEKSPVTKKDSQEIGKIIARAYGVKDSNGKIDVKKMVGAEVVGITACPCAQNMLKENAVVSLTEKGFSSEDIEKILDSVTIATHNQRGIGTVMIEVPNGYTVGISKIIKIIKDSMSGEVYELLKRSDEAFVVEAAHKNPKFVEDCAREMIKRVVDVFDYLPEDTQVLVRQVNKESIHRHDAFAERNSTIRELRDELKTLTN | not soluble |
